Measurements published in paper PMC4395133 (Molecular Biology of the Cell, 2015).

B1: GST-IMPα4 (natural protein, mouse, UniProt O35343 1-521, looked up)
chain: MADNEKLDNQRLKNFKNKGRDLETMRRQRNEVVVELRKNKRDEHLLKRRNVPQEDICEDSDIDGDYRVQNTSLEAIVQNASSDNQGIQLSAVQAARKLLSSDRNPPIDDLIKSGILPILVHCLERDDNPSLQFEAAWALTNIASGTSEQTQAVVQSNAVPLFLRLLHSPHQNVCEQAVWALGNIIGDGPQCRDYVISLGVVKPLLSFISPSIPITFLRNVTWVMVNLCRHKDPPPPMETIQEILPALCVLIHHTDVNILVDTVWALSYLTDAGNEQIQMVIDSGIVPHLVPLLSHQEVKVQTAALRAVGNIVTGTDEQTQVVLNCDALSHFPALLTHPKEKINKEAVWFLSNITAGNQQQVQAVIDANLVPMIIHLLDKGDFGTQKEAAWAISNLTISGRKDQVAYLIQQNVIPPFCNLLTVKDAQVVQVVLDGLSNILKMAEDQAETIANLIEECGGLEKIEQLQNHENEDIYKLAYEIIDQFFSSDDIDEDPSLVPESVQGGTFGFNSSTNVPTEGFQF
B2: HIS-tagged recombinant PSPC1 (natural protein, mouse, UniProt Q8R326-1 3-523, looked up)
chain: LRGNLKQVRIEKNPARLRALESAAGESEPVAAAAMALTLAGEQAPPPAPSEEHPDEELGFTIDIKSFLKPGEKTYTQRCRLFVGNLPTDITEEDFKRLFERYGEPSEVFINRDRGFGFIRLESRTLAEIAKAELDGTILKSRPLRIRFATHGAALTVKNLSPVVSNELLEQAFSQFGPVEKAVVVVDDRGRATGKGFVEFAAKPPARKALERCGDGAFLLTTTPRPVIVEPMEQFDDEDGLPEKLMQKTQQYHKEREQPPRFAQPGTFEFEYASRWKALDEMEKQQREQVDRNIREAKEKLEAEMEAARHEHQLMLMRQDLMRRQEELRRLEELRNQELQKRKQIQLRHEEEHRRREEEMIRHREQEELRRQQEGGFKPNYMENREQEMRMGDMGPRGAINMGDAFSPAPAGTQGPPPMMGMNMNNRGTIPGPPMGPGPAMGPEGAANMGTPMIPDNGAVHNDRFPQGPPSQMGSPMGNRTGSETPQAPMSGVGPVSGGPGGFGRGSQGGNFEGPNKRRRY

Columns and labels:
Assay in all cases: ELISA
[1] = molecular target: B2
[2] = molecular target: GST-tagged full-length IMPα2 (mouse, UniProt P52293 1-529)
GST-IMPα6 = GST-IMPα6 (mouse, UniProt O35345 1-536)
[3] = molecular target: IMPα2/GST-IMPβ1 heterodimer (tag-free IMPα2 predimerized with GST-IMPβ1) (mouse | , UniProt P52293 1-529; P70168 1-876)
IMPα2/GST-IMPβ1 heterodimer (tag-free IMPα2 predimerized with GST-IMPβ1), sequence (P70168 whole entry, one chain of several): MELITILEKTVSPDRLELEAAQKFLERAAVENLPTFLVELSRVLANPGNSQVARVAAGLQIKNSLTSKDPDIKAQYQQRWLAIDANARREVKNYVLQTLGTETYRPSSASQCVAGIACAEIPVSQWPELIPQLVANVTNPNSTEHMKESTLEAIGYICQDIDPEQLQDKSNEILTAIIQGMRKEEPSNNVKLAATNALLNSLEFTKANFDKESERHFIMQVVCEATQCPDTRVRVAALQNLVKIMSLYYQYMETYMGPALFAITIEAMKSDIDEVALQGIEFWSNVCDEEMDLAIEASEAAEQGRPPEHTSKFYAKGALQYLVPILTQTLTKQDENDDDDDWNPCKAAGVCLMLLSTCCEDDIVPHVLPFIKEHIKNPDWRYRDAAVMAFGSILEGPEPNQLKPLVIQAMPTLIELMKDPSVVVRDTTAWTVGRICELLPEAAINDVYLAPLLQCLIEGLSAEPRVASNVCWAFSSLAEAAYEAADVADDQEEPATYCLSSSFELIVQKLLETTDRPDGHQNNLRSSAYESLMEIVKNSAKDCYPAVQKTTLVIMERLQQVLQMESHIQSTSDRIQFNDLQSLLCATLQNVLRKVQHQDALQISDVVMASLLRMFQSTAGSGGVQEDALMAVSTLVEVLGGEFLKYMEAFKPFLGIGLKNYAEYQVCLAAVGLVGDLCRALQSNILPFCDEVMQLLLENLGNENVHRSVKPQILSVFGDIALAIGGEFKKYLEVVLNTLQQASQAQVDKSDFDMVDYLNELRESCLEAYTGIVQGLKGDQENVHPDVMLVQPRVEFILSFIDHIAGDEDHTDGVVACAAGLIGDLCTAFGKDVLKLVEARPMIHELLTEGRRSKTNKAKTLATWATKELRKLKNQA

[4] = molecular target: IMPα4/GST-IMPβ1 heterodimer (tag-free IMPα4 predimerized with GST-IMPβ1) (mouse | , UniProt O35343 1-521; P70168 1-876)
IMPα4/GST-IMPβ1 heterodimer (tag-free IMPα4 predimerized with GST-IMPβ1), sequence (P70168 whole entry, one chain of several): as above

[5] = molecular target: IMPα6/GST-IMPβ1 heterodimer (tag-free IMPα6 predimerized with GST-IMPβ1) (mouse | , UniProt O35345 1-536; P70168 1-876)
IMPα6/GST-IMPβ1 heterodimer (tag-free IMPα6 predimerized with GST-IMPβ1), sequence (P70168 whole entry, chain 2 of 2): as the sequence (P70168 whole entry, one chain of several) above

Row | Binder | Kd [1] [nM] | Kd [2] [nM] | Kd (GST-IMPα6) [nM] | Kd [3] [nM] | Kd [4] [nM] | Kd [5] [nM]
1 | B1 | 57.9 |  |  |  |  | 
2 | B2 |  | 15 | 5.9 | 1.9 | 21.3 | 2.1
